Laboratory results reported in paper PMC7192592 (Nucleic Acids Research, 2020).

Legend:
[1] = target: the molecule itself; assay: FRET or BRET; donor- and acceptor-labeled cGAS^FL with 72-bp dsDNA, with or without Mn^2+ and/or Apcpp/Gpcpp (Supplementary Figure S2A)
[2] = target: the molecule itself; assay: SEC; size-exclusion chromatography of cGAS^FL variants (Supplementary Figure S2B)

Protein | binding result [1] | stoichiometry N [2]
TAMRA- or Cy5-labeled cGAS^FL (1:1 mixture of donor- and acceptor-labeled populations) (enzyme, human, UniProt Q8N884 2-522, looked up, TAMRA or Cy5 label (site not stated)) QPWHGKAMQRASEAGATAPKASARNARGAPMDPTESPAAPEAALPKAGKFGPARKSGSRQKKSAPDTQERPPVRATGARAKKAPQRAQDTQPSDATSAPGAEGLEPPAAREPALSRAGSCRQRGARCSTKPRPPPGPWDVPSPGLPVSAPILVRRDAAPGASKLRAVLEKLKLSRDDISTAAGMVKGVVDHLLLRLKCDSAFRGVGLLNTGSYYEHVKISAPNEFDVMFKLEVPRIQLEEYSNTRAYYFVKFKRNPKENPLSQFLEGEILSASKMLSKFRKIIKEEINDIKDTDVIMKRKRGGSPAVTLLISEKISVDITLALESKSSWPASTQEGLRIQNWLSAKVRKQLRLKPFYLVPKHAKEGNGFQEETWRLSFSHIEKEILNNHGKSKTCCENKEEKCCRKDCLKLMKYLLEQLKERFKDKKHLDKFSSYHVKTAFFHVCTQNPQDSQWDRKDLGLCFDNCVTYFLQCLRTEKLENYFIPEFNLFSSNLIDKRSKEFLTKQIEYERNNEFPVFDEF | binds | –
human full-length cGAS (cGAS^FL), wild-type (enzyme, UniProt Q8N884 2-522, looked up) QPWHGKAMQRASEAGATAPKASARNARGAPMDPTESPAAPEAALPKAGKFGPARKSGSRQKKSAPDTQERPPVRATGARAKKAPQRAQDTQPSDATSAPGAEGLEPPAAREPALSRAGSCRQRGARCSTKPRPPPGPWDVPSPGLPVSAPILVRRDAAPGASKLRAVLEKLKLSRDDISTAAGMVKGVVDHLLLRLKCDSAFRGVGLLNTGSYYEHVKISAPNEFDVMFKLEVPRIQLEEYSNTRAYYFVKFKRNPKENPLSQFLEGEILSASKMLSKFRKIIKEEINDIKDTDVIMKRKRGGSPAVTLLISEKISVDITLALESKSSWPASTQEGLRIQNWLSAKVRKQLRLKPFYLVPKHAKEGNGFQEETWRLSFSHIEKEILNNHGKSKTCCENKEEKCCRKDCLKLMKYLLEQLKERFKDKKHLDKFSSYHVKTAFFHVCTQNPQDSQWDRKDLGLCFDNCVTYFLQCLRTEKLENYFIPEFNLFSSNLIDKRSKEFLTKQIEYERNNEFPVFDEF | – | 2
K173E/R176E-cGAS^FL (enzyme, human, UniProt Q8N884 2-522, looked up) QPWHGKAMQRASEAGATAPKASARNARGAPMDPTESPAAPEAALPKAGKFGPARKSGSRQKKSAPDTQERPPVRATGARAKKAPQRAQDTQPSDATSAPGAEGLEPPAAREPALSRAGSCRQRGARCSTKPRPPPGPWDVPSPGLPVSAPILVRRDAAPGASKLRAVLEKLELSEDDISTAAGMVKGVVDHLLLRLKCDSAFRGVGLLNTGSYYEHVKISAPNEFDVMFKLEVPRIQLEEYSNTRAYYFVKFKRNPKENPLSQFLEGEILSASKMLSKFRKIIKEEINDIKDTDVIMKRKRGGSPAVTLLISEKISVDITLALESKSSWPASTQEGLRIQNWLSAKVRKQLRLKPFYLVPKHAKEGNGFQEETWRLSFSHIEKEILNNHGKSKTCCENKEEKCCRKDCLKLMKYLLEQLKERFKDKKHLDKFSSYHVKTAFFHVCTQNPQDSQWDRKDLGLCFDNCVTYFLQCLRTEKLENYFIPEFNLFSSNLIDKRSKEFLTKQIEYERNNEFPVFDEF | – | 2
